In article PMC2965233:

T1: ADF-1 (D. funebris) (Drosophila funebris, UniProt E2DD98 1-262)
T1 sequence: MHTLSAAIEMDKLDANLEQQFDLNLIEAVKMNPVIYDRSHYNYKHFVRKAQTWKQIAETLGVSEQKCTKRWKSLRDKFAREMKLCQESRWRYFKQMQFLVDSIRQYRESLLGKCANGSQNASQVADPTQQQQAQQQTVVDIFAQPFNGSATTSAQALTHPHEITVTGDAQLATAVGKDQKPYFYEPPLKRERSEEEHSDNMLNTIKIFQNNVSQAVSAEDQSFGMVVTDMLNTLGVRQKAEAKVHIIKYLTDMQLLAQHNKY

T2: ADF-1 (D. melanogaster) (Drosophila melanogaster, UniProt P05552 1-262)
T2 sequence: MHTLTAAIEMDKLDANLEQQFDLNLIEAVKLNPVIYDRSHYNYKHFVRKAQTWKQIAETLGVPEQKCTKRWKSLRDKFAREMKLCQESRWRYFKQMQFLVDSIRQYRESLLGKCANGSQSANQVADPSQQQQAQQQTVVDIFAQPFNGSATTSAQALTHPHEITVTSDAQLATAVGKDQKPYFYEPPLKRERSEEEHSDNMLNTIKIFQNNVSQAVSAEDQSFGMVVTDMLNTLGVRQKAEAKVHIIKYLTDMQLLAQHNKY

B1: Oligo 2 (dsDNA)
DNA 1: ATCGACGTCAACGGCAGCGTTCACAT
DNA 2: ATGTGAACGCTGCCGTTGACGTCGAT
B2: Oligo 4 (dsDNA)
DNA 1: TCGCTGTCTCAGTCGACGCTATTGAT
DNA 2: ATCAATAGCGTCGACTGAGACAGCGA
B3: Oligo 3 (dsDNA)
DNA 1: TCAATGTCGCCGTCGCTGTCTCAGTCG
DNA 2: CGACTGAGACAGCGACGGCGACATTGA
B4: Oligo 1 (dsDNA)
DNA 1: ATCGACGTCGGCGTCGACATCGTGA
DNA 2: TCACGATGTCGACGCCGACGTCGAT

What was measured:
ADF-1 (D. funebris) = target: T1, ADF-1 (D. funebris); experiment: EMSA
ADF-1 (D. melanogaster) = target: T2, ADF-1 (D. melanogaster); experiment: EMSA

Binder | Kd (ADF-1 (D. funebris)) [µM] | Kd (ADF-1 (D. melanogaster)) [µM]
B1 | 5.05 | 4.07
B2 | 1.86 | 1.63
B3 | 28.3 | 27.5
B4 | 1.95 | 1.98
